In publication PMC7980224:

Columns and labels:
Assay in all cases: EMSA
Conditions in all cases: apparent Kd; RNA of Fig S1f not named, assumed U1; EMSA: 10 nM labeled RNA, 2-fold protein dilutions up to 10 uM, 2 h on ice, 1% TBE-agarose, 50 V, 4 C; binding buffer not stated (protein elution buffer 150 mM …)
[1] = system: INTS4;INTS9;INTS11 (human?;human?;human?)
[2] = system: INTS5;INTS8
[3] = system: INTS10;INTS13;INTS14 (human?;human?;human?)

Substance U1 pre-snRNA stem-loop 4 with 3' box has a Kd [1] of 0.82 µM, a Kd [2] of 3.1 µM and a Kd [3] of 0.78 µM.
